Data as given in patent US20250250343A1 (UNITY BIOTECHNOLOGY, published 2025).
Read-outs that look alike come from different tables or passages of the source. One block for each binder: values may come before it.

Legend:
Experiment in all cases: cell-based or functional assay
human Tie2 [1] = target: T1, human Tie2 (human, UniProt Q02763 23-1124)
human Tie2 [2] = target: T1, human Tie2; remark: listed apart in the source
VEGF [3] = target: T2, VEGF (human, UniProt P15692-4)
human Tie2 [4] = target: T1, human Tie2; remark: listed apart in the source
human Tie2 [5] = target: T1, human Tie2; remark: listed apart in the source
human Tie2 [6] = target: T1, human Tie2; remark: listed apart in the source
VEGF [7] = target: T2, VEGF; remark: listed apart in the source
human Tie2 [8] = target: T1, human Tie2; remark: listed apart in the source
human Tie2 [9] = target: T1, human Tie2; remark: listed apart in the source
human Tie2 [10] = target: T1, human Tie2; remark: listed apart in the source
VEGF [11] = target: T2, VEGF; remark: listed apart in the source
VEGF [12] = target: T2, VEGF; remark: listed apart in the source

T2 sequence (P15692 other isoform, or with tags, fused parts or gaps limits assumed): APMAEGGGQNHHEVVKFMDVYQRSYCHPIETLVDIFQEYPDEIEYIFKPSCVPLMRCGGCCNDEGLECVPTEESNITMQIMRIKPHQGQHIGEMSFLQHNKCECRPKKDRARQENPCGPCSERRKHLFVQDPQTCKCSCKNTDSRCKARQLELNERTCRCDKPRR
T1 sequence (Q02763 23-1124): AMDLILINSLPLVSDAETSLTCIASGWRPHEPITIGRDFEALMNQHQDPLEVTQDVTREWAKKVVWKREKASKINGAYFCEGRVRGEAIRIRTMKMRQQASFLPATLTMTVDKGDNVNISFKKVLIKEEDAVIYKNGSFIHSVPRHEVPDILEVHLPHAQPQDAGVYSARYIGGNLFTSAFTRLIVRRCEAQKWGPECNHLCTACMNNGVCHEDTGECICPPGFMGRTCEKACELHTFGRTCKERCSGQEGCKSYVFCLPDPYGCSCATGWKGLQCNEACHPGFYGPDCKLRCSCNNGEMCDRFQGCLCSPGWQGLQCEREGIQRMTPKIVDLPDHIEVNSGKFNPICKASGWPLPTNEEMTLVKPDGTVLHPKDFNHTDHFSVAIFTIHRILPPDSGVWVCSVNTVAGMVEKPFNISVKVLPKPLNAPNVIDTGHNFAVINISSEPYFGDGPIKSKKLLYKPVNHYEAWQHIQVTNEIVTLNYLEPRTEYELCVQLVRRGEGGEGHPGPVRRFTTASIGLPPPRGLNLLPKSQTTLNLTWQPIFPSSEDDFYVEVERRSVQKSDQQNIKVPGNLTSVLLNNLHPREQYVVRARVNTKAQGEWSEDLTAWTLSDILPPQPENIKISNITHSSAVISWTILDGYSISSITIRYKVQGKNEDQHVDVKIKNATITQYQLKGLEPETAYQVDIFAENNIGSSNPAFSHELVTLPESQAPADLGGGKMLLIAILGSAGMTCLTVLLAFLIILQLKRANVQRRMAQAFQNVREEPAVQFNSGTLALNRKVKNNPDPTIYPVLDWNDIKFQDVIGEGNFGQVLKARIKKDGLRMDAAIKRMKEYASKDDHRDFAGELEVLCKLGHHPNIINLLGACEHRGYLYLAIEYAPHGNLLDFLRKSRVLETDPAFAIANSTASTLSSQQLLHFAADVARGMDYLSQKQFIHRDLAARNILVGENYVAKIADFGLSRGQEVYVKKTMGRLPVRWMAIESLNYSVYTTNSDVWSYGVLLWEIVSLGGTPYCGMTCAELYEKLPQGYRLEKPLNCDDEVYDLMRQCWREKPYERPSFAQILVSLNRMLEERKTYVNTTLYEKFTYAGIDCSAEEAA

B3: #2 (bispecific antibody, human IgG1, kappa, L234A L235A)
heavy chain: DVQLVESGGGVVRPGESLRLSCTASGFTFDSYGMSWVRQAPGKGLEWVSSINVGDNTYYADSVRGRFIISRDSSRNTLYLQMNSLTAEDTAVYYCANWNSFFDYWGLGTLVTVSSASTKGPSVFPLAPSSKSTSGGTAALGCLVKDYFPEPVTVSWNSGALTSGVHTFPAVLQSSGLYSLSSVVTVPSSSLGTQTYICNVNHKPSNTKVDKKVEPKSCDKTHTCPPCPAPEAAGGPSVFLFPPKPKDTLMISRTPEVTCVVVDVSHEDPEVKFNWYVDGVEVHNAKTKPREEQYNSTYRVVSVLTVLHQDWLNGKEYKCKVSNKALGAPIEKTISKAKGQPREPQVYTLPPSREEMTKNQVSLTCLVKGFYPSDIAVEWESNGQPENNYKTTPPVLDSDGSFFLYSKLTVDKSRWQQGNVFSCSVMHEALHNHYTQKSLSLSPGKGGGGSGGGGSDIQMTQSPSSLSASVGDRVTITCRASQVIRRSLAWYQQKPGKAPKLLIYAASNLASGVPSRFSGSGSGTDFTLTISSLQPEDFATYYCQQSNTSPLTFGQGTKVEIKGQSSRSSGGGGSSGGGGSEVQLVESGGGLVQPGGSLRLSCAASGFSINGSWIFWVRQAPGKGLEWVGAIWPFGGYTHYADSVKGRFTISADTSKNTAYLQMNSLRAEDTAVYYCARWGHSTSPWAMDYWGQGTLVTVSS
light chain (kappa): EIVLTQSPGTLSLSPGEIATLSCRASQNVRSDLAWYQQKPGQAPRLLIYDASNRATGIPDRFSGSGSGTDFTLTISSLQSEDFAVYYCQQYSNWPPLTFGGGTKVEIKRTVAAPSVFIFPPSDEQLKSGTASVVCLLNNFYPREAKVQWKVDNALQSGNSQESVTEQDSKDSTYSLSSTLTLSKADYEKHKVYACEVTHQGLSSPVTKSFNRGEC
EC50, pTie2 in HUVEC (in vitro potency; the sheet's head prints no unit, EC50 in nM per legend paragraph 17) (human Tie2 [10]): 2.1 nM
EC50, VEGF neutralisation, KDR/NFAT-RE HEK293 luciferase reporter (the sheet's head prints no unit, EC50 in nM per legend paragraph 17) (VEGF [11]): 0.9 nM
IC50 (read off the curve); % VEGF activity, KDR/NFAT-RE HEK293 luciferase reporter [Panel A] (VEGF [12]): ~1 nM

B4: #11 (bispecific antibody, human IgG1, kappa, L234A L235A)
heavy chain: DVQLVESGGGVVRPGESLRLSCTASGFTFDSYGMSWVRQAPGKGLEWVSSINVGDNTYYADSVRGRFIISRDSSRNTLYLQMNSLTAEDTAVYYCANWNSFFDYWGLGTLVTVSSASTKGPSVFPLAPSSKSTSGGTAALGCLVKDYFPEPVTVSWNSGALTSGVHTFPAVLQSSGLYSLSSVVTVPSSSLGTQTYICNVNHKPSNTKVDKKVEPKSCDKTHTCPPCPAPEAAGGPSVFLFPPKPKDTLMASRTPEVTCVVVDVSHEDPEVKFNWYVDGVEVHNAKTKPREEQYNSTYRVVSVLTVLAQDWLNGKEYKCKVSNKALGAPIEKTISKAKGQPREPQVYTLPPSREEMTKNQVSLTCLVKGFYPSDIAVEWESNGQPENNYKTTPPVLDSDGSFFLYSKLTVDKSRWQQGNVFSCSVMHEALHNAYTQKSLSLSPGKGGGGSGGGGSDIQLTQSPSSLSASVGDRVTITCSASQDISNYLNWYQQKPGKAPKVLIYFTSSLHSGVPSRFSGSGSGTDFTLTISSLQPEDFATYYCQQYSTVPWTFGQGTKVEIKGQSSRSSGGGGSSGGGGSEVQLVESGGGLVQPGGSLRLSCAASGYDFTHYGMNWVRQAPGKGLEWVGWINTYTGEPTYAADFKRRFTFSLDTSKSTAYLQMNSLRAEDTAVYYCAKYPYYYGTSHWYFDVWGQGTLVTVSS
light chain (kappa): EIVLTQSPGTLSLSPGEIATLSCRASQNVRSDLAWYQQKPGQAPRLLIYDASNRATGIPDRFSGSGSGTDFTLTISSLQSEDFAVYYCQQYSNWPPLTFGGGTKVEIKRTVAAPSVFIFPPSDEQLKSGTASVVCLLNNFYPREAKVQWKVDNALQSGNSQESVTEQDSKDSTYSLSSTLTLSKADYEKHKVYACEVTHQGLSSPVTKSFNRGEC
EC50, VEGF neutralisation, KDR/NFAT-RE HEK293 luciferase reporter (the sheet's head prints no unit, EC50 in nM per legend paragraph 17) (VEGF [11]): 0.107 nM

B5: #13 (bispecific antibody, human IgG1, kappa, L234A L235A)
heavy chain: DVQLVESGGGVVRPGESLRLSCTASGFTFDSYGMSWVRQAPGKGLEWVSSINVGDNTYYADSVRGRFIISRDSSRNTLYLQMNSLTAEDTAVYYCANWNSFFDYWGLGTLVTVSSASTKGPSVFPLAPSSKSTSGGTAALGCLVKDYFPEPVTVSWNSGALTSGVHTFPAVLQSSGLYSLSSVVTVPSSSLGTQTYICNVNHKPSNTKVDKKVEPKSCDKTHTCPPCPAPEAAGGPSVFLFPPKPKDTLMISRTPEVTCVVVDVSHEDPEVKFNWYVDGVEVHNAKTKPREEQYNSTYRVVSVLTVLHQDWLNGKEYKCKVSNKALGAPIEKTISKAKGQPREPQVYTLPPSREEMTKNQVSLTCLVKGFYPSDIAVEWESNGQPENNYKTTPPVLDSDGSFFLYSKLTVDKSRWQQGNVFSCSVMHEALHNHYTQKSLSLSPGKKEHVRVFTSNKKTMLGSSAACTYLGQDSRTVGDITLTSLFKKMESGSQTKLDRNVLKKHQHKSSPYEWNFDIGVNLETRATCNLVLKEGVSLEIGHSPSLVVDIITNTQRHTLYNTKYLHGNVTAECTLLGIEKYTANSIIFGKRSDWIIRKGDPILTDLPFKKLTVTINPSTVRCPIVLERGETMHIIEPIESYMEVFPRGTDS
light chain (kappa): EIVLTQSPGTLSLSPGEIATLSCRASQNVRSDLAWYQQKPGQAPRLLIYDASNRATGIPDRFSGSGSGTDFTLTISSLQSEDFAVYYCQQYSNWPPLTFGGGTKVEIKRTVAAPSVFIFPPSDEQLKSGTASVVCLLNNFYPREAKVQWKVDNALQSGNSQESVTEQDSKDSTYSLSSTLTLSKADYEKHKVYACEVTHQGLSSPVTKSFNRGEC
EC50, VEGF neutralisation, KDR/NFAT-RE HEK293 luciferase reporter (VEGF [7]): 0.854 nM

Further lines, results first:

EC50, pAkt in HUVEC (MSD ELISA) [Panel B] (human Tie2 [1]): 0.909 nM
EC50, pTIE2 in HUVEC [Panel C] (human Tie2 [2]): 3.56 nM
EC50, VEGF inhibition, KDR/NFAT-RE HEK293 luciferase reporter [Panel C] (VEGF [3]): 1.6 nM
EC50, pTie2 in HUVEC, W/ VEGF (20 nM VEGF-165 per paragraph 153) [Panel E] (human Tie2 [4]): 0.39 nM
EC50, pTie2 in HUVEC, W/O VEGF [Panel E] (human Tie2 [4]): 1.33 nM
EC50, pTie2 in HUVEC, W/ VEGF (panels A-C print 'W/ VEGF 50nM'; paragraph 153 says 20 nM) [Panel D] (human Tie2 [5]): 0.39 nM
EC50, pTie2 in HUVEC, W/O VEGF [Panel D] (human Tie2 [5]): 1.33 nM
EC50, pTie2 in HUVEC (in vitro potency) (human Tie2 [6]): 4.2 nM
EC50, VEGF neutralisation, KDR/NFAT-RE HEK293 luciferase reporter (VEGF [7]): 1.3 nM
phosphorylated Akt potency in HUVEC cells, against Construct #5 (human Tie2 [8]): ~5 fold
EC50, pAkt in HUVEC (MSD ELISA) [Panel B] (human Tie2 [9]): 1.33 nM
B1: Construct #1 (bispecific antibody, human IgG1, kappa, L234A L235A)
heavy: DVQLVESGGGVVRPGESLRLSCTASGFTFDSYGMSWVRQAPGKGLEWVSSINVGDNTYYADSVRGRFIISRDSSRNTLYLQMNSLTAEDTAVYYCANWNSFFDYWGLGTLVTVSSASTKGPSVFPLAPSSKSTSGGTAALGCLVKDYFPEPVTVSWNSGALTSGVHTFPAVLQSSGLYSLSSVVTVPSSSLGTQTYICNVNHKPSNTKVDKKVEPKSCDKTHTCPPCPAPEAAGGPSVFLFPPKPKDTLMISRTPEVTCVVVDVSHEDPEVKFNWYVDGVEVHNAKTKPREEQYNSTYRVVSVLTVLHQDWLNGKEYKCKVSNKALGAPIEKTISKAKGQPREPQVYTLPPSREEMTKNQVSLTCLVKGFYPSDIAVEWESNGQPENNYKTTPPVLDSDGSFFLYSKLTVDKSRWQQGNVFSCSVMHEALHNHYTQKSLSLSPGKSDTGRPFVEMYSEIPEIIHMTEGRELVIPCRVTSPNITVTLKKFPLDTLIPDGKRIIWDSRKGFIISNATYKEIGLLTCEATVNGHLYKTNYLTHRQTNTIIDVVLSPSHGIELSVGEKLVLNCTARTELNVGIDFNWEYPSSKHQHKKLVNRDLKTQSGSEMKKFLSTLTIDGVTRSDQGLYTCAASSGLMTKKNSTFVRVHEK
light: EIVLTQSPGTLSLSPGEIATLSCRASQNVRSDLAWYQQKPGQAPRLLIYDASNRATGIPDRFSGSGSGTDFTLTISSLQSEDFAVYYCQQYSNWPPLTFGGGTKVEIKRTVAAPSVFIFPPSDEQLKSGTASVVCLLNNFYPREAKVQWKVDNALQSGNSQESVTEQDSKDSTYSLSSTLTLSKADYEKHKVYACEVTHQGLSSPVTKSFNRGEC

EC50, pTIE2 in HUVEC [Panel C] (human Tie2 [2]): 2.42 nM
EC50, VEGF inhibition, KDR/NFAT-RE HEK293 luciferase reporter [Panel C] (VEGF [3]): 0.31 nM
EC50, pTie2 in HUVEC, W/ VEGF (panels A-C print 'W/ VEGF 50nM'; paragraph 153 says 20 nM) [Panel D] (human Tie2 [5]): 0.87 nM
EC50, pTie2 in HUVEC, W/O VEGF [Panel D] (human Tie2 [5]): 2.24 nM
EC50, pTie2 in HUVEC (in vitro potency) (human Tie2 [6]): 3.55 nM
EC50, VEGF neutralisation, KDR/NFAT-RE HEK293 luciferase reporter (VEGF [7]): 0.245 nM
EC50, pAkt in HUVEC (MSD ELISA) [Panel B] (human Tie2 [9]): 0.87 nM
B2: Construct #3 (bispecific antibody, human IgG1, kappa, L234A L235A)
heavy: DVQLVESGGGVVRPGESLRLSCTASGFTFDSYGMSWVRQAPGKGLEWVSSINVGDNTYYADSVRGRFIISRDSSRNTLYLQMNSLTAEDTAVYYCANWNSFFDYWGLGTLVTVSSASTKGPSVFPLAPSSKSTSGGTAALGCLVKDYFPEPVTVSWNSGALTSGVHTFPAVLQSSGLYSLSSVVTVPSSSLGTQTYICNVNHKPSNTKVDKKVEPKSCDKTHTCPPCPAPEAAGGPSVFLFPPKPKDTLMISRTPEVTCVVVDVSHEDPEVKFNWYVDGVEVHNAKTKPREEQYNSTYRVVSVLTVLHQDWLNGKEYKCKVSNKALGAPIEKTISKAKGQPREPQVYTLPPSREEMTKNQVSLTCLVKGFYPSDIAVEWESNGQPENNYKTTPPVLDSDGSFFLYSKLTVDKSRWQQGNVFSCSVMHEALHNHYTQKSLSLSPGKGGGGSGGGGSGGGGSSDTGRPFVEMYSEIPEIIHMTEGRELVIPCRVTSPNITVTLKKFPLDTLIPDGKRIIWDSRKGFIISNATYKEIGLLTCEATVNGHLYKTNYLTHRQTNTIIDVVLSPSHGIELSVGEKLVLNCTARTELNVGIDFNWEYPSSKHQHKKLVNRDLKTQSGSEMKKFLSTLTIDGVTRSDQGLYTCAASSGLMTKKNSTFVRVHEK
light: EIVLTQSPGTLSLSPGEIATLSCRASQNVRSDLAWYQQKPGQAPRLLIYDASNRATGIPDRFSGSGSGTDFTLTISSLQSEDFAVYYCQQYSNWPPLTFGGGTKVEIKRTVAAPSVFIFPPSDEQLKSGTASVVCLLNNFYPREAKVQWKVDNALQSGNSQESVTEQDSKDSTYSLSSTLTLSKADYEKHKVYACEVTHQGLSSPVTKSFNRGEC
